From publication PMC9237525, “Solution Structure of Tubuliform Spidroin N-Terminal Domain and Implications for pH Dependent Dimerization” (Frontiers in Molecular Biosciences, 2022)

Assays:
[1] = molecular target: Argiope argentata TuSp NT E37Q E82Q (Argiope argentata); experiment: SEC; Superdex 75 Increase 10/300 GL, 50 µl at 3 mg/ml, 20 mM NaOAc, 20 mM NaCl, pH 5.5
[2] = molecular target: Argiope argentata TuSp NT E37Q E82Q E85Q D130N (Argiope argentata); experiment: as above
[3] = molecular target: Argiope argentata TuSp NT E37Q E82Q E85Q (Argiope argentata); experiment: as above
[4] = molecular target: the molecule itself; experiment: 15N NMR relaxation (rotational correlation time); pH 5.5; T1 and T2 of backbone amides, 800 MHz; molecular weight estimated from the correlation time

Argiope argentata TuSp NT E37Q E82Q (domain or fragment)
stoichiometry N [1]: 2

Argiope argentata TuSp NT E37Q E82Q E85Q D130N (domain or fragment)
stoichiometry N [2]: 2

Argiope argentata TuSp NT E37Q E82Q E85Q (domain or fragment)
stoichiometry N [3]: 2

B1: Argiope argentata tubuliform spidroin (TuSp 1) N-terminal domain, wild type (domain or fragment)
chain: AVTAVPSVFSSPNLASGFLQCLTFGIGNSPAFPTQEQQDLDAIAQVILNAVSTNTGATASARAQALSTALASSLTDLLIAESAESNYNNQLSELTGILSNCFIQTTGSDNPAFVSRIQSLISVLSQNTDVNIISTA
notes: Tubuliform spidroin 1 (TuSp 1) N-terminal domain, Argiope argentata; 136 residues (count printed for the A70E variant); Expressed from pET-32a-HisTrxHisNT; Intramolecular disulfide C22-C102; 15N- or 13C,15N-labelled for NMR; Calculated mass 14.1 kDa (monomer); also called TuSp NT; wt TuSp NT; not shown: His-Trx, N-terminal, cleaved
stoichiometry N [4]: 2
